Source: paper PMC6993865 (Biochemical Journal, 2020)
Where “and” joins values, the source holds several entries; their conditions need not be identical. Equal entries are not always repeated.

Target: T1, chymotrypsin-treated recombinant P. falciparum SUB1 (P. falciparum, UniProt Q8I0V0 218-688)
T1 construct: subtilisin-like protease SUB1, P. falciparum, PF3D7_0507500; recombinant, chymotrypsin-treated; also called rPfSUB1; PfSUB1
T1 sequence: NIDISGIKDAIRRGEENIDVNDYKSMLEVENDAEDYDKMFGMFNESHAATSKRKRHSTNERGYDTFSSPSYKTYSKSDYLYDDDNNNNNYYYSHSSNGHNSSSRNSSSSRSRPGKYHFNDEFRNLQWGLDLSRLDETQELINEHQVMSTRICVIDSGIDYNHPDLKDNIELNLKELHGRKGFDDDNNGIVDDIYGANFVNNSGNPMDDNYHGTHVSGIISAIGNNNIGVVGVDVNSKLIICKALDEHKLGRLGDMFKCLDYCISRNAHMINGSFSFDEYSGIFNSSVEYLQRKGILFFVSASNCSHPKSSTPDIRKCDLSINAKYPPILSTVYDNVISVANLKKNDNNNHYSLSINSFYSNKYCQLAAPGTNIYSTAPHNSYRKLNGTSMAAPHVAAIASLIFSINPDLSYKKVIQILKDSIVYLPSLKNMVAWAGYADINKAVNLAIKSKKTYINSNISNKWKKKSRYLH
Assay: enzyme inhibition kinetics (fluorogenic peptide substrate); rSUB1-ProM (7.81-250 nM final) added to ongoing hydrolysis of SERA4st1F-6R12 (0.1 µM, well below Km) by rPfSUB1 (0.045 U in 100 µl); 25 mM Tris-HCl pH 8.2, 25 mM CHAPS, 12 mM CaCl2; 21°C; apparent tight-binding inhibition constant, Ki(app) ~ Ki
Conditions: both partners purified

B1: recombinant Plasmodium falciparum SUB1-ProM (SUB1 propeptide mimic), GST-free (natural protein)
chain: QVTPAGTVLNSNSALISRRINRRKMKNCNNNDLLKVLKMETTYNELPAHNLLMSSKNDINKLFDYINKNEELSKLMNSCGTYVYLKYLGVVIFSIKENVQISHLSEFIQYLLNKNVCIEFNQNVML
notes: SUB1-ProM, P. falciparum 3D7, PF3D7_0507400, residues 28-153 of the 153-residue protein (lacks the predicted 27-residue signal peptide); synthetic gene; also called rSUB1-ProM; PfSUB1-ProM; source: E. coli BL21(R2), purified (Glutathione Sepharose 4B, PreScission cleavage, Superdex 200)
Ki: 5.67 nM and 5.34 nM
